The source of these data is patent US20250090676A1 (SUTRO BIOPHARMA, published 2025).

Assay [1] deals with T1, cynomolgus monkey folate receptor alpha (cynomolgus monkey, UniProt P15328 25-234 (human entry)).
T1 construct: Expressed on the surface of stably transfected CHO cells; also called cyno FolR1; CHO-cyno FolR1
In words: FACS, CHO-cFOLR1 cells. (In general: A flow cytometer gives signals particle by particle.)
Experimental: (§1) CHO cells were transfected to stably express human (CHO-hFOLR1), cynomolgus (CHO-cFOLR1), or mouse (CHO-mFOLR1) target molecule FOLR1 on the cell surface. Parental CHO cells were used as a negative control to determine background binding levels. Parental CHO and stably transfected CHO-hFOLR1, CHO-cFOLR1, and CHO-mFOLR1 cells were cultured in Ham's F-12: high glucose DMEM (50:50) (Corning, Cellgro-Mediatech) supplemented with 10% heat-inactivated fetal bovine serum (Corning, Cellgro-Mediatech), 1% Penicillin/Streptomycin (Corning, Cellgro-Mediatech) and 2 mmol/L-glutamax (Life Technology).
(§2) A mixture of fluoresecent-labeled parental CHO cells and unlabeled CHO-hFOLRlcells were prepared as follows. Parental CHO cells were washed twice in PBS and incubated in PBS containing with 1 nM CellTrace™ Oregon Green488® (Life Technologies) at 37° C. for 30 minutes. Labeled parental CHO cells were then washed 2× with Ham's F-12 media and 2× with FACS buffer (PBS with 1% bovine serum albumin). Unlabeled CHO-hFOLR1 cells were similarly washed and prepared. Labeled parental CHO and unlabeled CHO-hFOLR1 cells were combined at 1:1 ratio and seeded at 50 μL per well (200,000 cells per well) in 96 well polypropylene plates. Cells were mixed with 50 μL of test antibodies (i.e., anti-FOLR1 variants) serially diluted in FACS buffer and incubated on ice for 60 mins. […] Data were analyzed using FlowJo® software (FlowJo, LLC; Ashland, OR) to determine mean fluorescence intensities. Binding constants were calculated using the statistical software, GraphPad Prism (GraphPad Software; La Jolla, CA) using the nonlinear regression equation, one site-specific binding with Hill slope. Secondary antibody alone was used as a control, in addition to measuring non-specific antibody binding to CHO parental cells.

The target of assay [2] is T2, murine folate receptor alpha (mouse, UniProt P35846 25-232).
T2 construct: Expressed on the surface of stably transfected CHO cells; also called mouse FolR1; CHO-mouse FolR1
In words: FACS, CHO-mFOLR1 cells.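 Also: flow cytometry binding of serially diluted test antibodies to transfected CHO cells on ice, mean fluorescence intensity, parental CHO cells give background, Kd from one-site specific binding fit with Hill slope.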
Experimental: as §1, §2

Assay [3] concerns the target T3, human folate receptor alpha (hFOLR1) (human, UniProt P15328 25-234).
T3 construct: endogenous on FOLR1-positive KB and Igrov1 cells (cell killing); also called human FolR1; FolRα
In words: FACS, CHO-hFOLR1 cells.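 Also: flow cytometry of serially diluted antibodies binding CHO cells stably expressing the receptor, 60 min on ice, mixed with dye-tagged parental CHO as background control, one-site specific fit with Hill slope.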
Experimental: as §1, §2

Assay [4] has as its target T3, human folate receptor alpha (hFOLR1). In words: cell-based or functional assay.

T2 sequence (P35846 25-232 limits assumed): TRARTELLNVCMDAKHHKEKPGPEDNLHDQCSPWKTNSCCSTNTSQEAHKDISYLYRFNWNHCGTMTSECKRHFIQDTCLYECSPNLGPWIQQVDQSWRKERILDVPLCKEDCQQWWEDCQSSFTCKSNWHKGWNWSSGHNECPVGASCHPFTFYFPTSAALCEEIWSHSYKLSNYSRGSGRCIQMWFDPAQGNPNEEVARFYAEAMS
T3 sequence (P15328 25-234 limits assumed): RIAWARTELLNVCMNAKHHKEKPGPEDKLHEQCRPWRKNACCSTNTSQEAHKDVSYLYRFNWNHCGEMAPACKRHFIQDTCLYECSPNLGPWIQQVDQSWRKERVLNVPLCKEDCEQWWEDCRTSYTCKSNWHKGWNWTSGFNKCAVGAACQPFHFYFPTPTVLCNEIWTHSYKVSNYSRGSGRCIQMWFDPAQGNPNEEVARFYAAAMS
T1 sequence (P15328 other isoform, or with tags, fused parts or gaps limits assumed): as the sequence (P15328 25-234 limits assumed) above, with I2T, W4R, R37K, Q117R, A146P, H171Y counted along it

B1: SRP1848-A09 (antibody, V domains shown)
VH: EVQLVESGGGLVQPGGSLRLSCAASGFNIRKQSIHWVRQAPGKGLEWVGSIFPNDGTTDYADSVKGRFTISADTSKNTAYLQVNSLRAEDTAVYYCARGSWFWRSGYGYFLEYWGQGTLVTVSS
VL: not shown
notes: HC variant paired with trastuzumab LC, cell-free expressed, HIS- and FLAG-tagged; also called Antibody 7
The term Kd denotes the constant that tells how readily two partners part at equilibrium. B1: in assay [1], the “Bmax (MFI)” value is 20200 MFI and binding was put at a Kd of 0.31 nM. Besides, in assay [2], the “Bmax (MFI)” value was 7990 MFI and the Kd is 1 nM. Besides, in assay [3], the “Bmax (MFI)” value was 28900 MFI and the affinity, expressed as Kd, was 0.61 nM. Moreover, in assay [4], the “Igrov, 2° Antibody Cell Killing, Nb-SC239: EC50” value (from here on “Igrov … EC50”) is 0.026 nM; the “Igrov, 2° Antibody Cell Killing, Nb-SC239: Span” value (shortened to “Igrov … Span”) came to 71%; the “KB, 2° Antibody Cell Killing, Nb-239: Span” value (“KB … Span” below) came out at 93%.

B2: SRP1848-B10 (antibody, V domains shown)
VH: EVQLVESGGGLVQPGGSLRLSCAASGFNTTTKSIHWVRQAPGKGLEWVGEIYPRDGITDYADSVKGRFTISADTSKNTAYLQMNSLRAEDTAVYYCARGGWHWRSGYSYYLDYWGQGTLVTVSS
VL: not shown
notes: HC variant paired with trastuzumab LC, cell-free expressed, HIS- and FLAG-tagged; also called Antibody 16
As for B2, in assay [1], the “Bmax (MFI)” value was 21300 MFI and the dissociation constant Kd came to 0.44 nM. Also, in assay [2], the “Bmax (MFI)” value worked out at 2460 MFI and the affinity, expressed as Kd, was 7.3 nM. Besides, in assay [3], the “Bmax (MFI)” value turned out to be 28200 MFI and the affinity, expressed as Kd, was 0.83 nM. In addition, in assay [4], the “Igrov … Span” value came to 71%; the “KB, 2° Antibody Cell Killing, Nb-239: EC50” value (shortened to “KB … EC50”) stood at 0.04 nM; the “KB … Span” value came out at 97%.

B3: SRP1848-B06 (antibody, V domains shown)
VH: EVQLVESGGGLVQPGGSLRLSCAASGFNISNYYIHWVRQAPGKGLEWVGGITPIDGYTDYADSVKGRFTISADTSKNTAYLQMNSLRAEDTAVYYCARGFWSWPSGYGYYQDYWGQGTLVTVSS
VL: not shown
notes: HC variant paired with trastuzumab LC, cell-free expressed, HIS- and FLAG-tagged; also called Antibody 13
Regarding B3, in assay [1], the “Bmax (MFI)” value is 26800 MFI and the Kd was 1.21 nM. Further, the binding result in assay [2] was “no binding”. Moreover, in assay [3], the “Bmax (MFI)” value worked out at 25100 MFI and the Kd amounted to 0.67 nM. In assay [4], the “Igrov … EC50” value is 0.022 nM; the “Igrov … Span” value was 72%; the “KB … EC50” value is 0.058 nM; the “KB … Span” value is 95%.

B4: SRP1848-B03 (antibody, V domains shown)
VH: EVQLVESGGGLVQPGGSLRLSCAASGFNISMKYIHWVRQAPGKGLEWVGGITPIDGMTDYADSVKGRFTISADTSKNTAYLQMNSLRAEDTAVYYCARGSWSWPSGYSYYLDYWGQGTLVTVSS
VL: not shown
notes: HC variant paired with trastuzumab LC, cell-free expressed, HIS- and FLAG-tagged; also called Antibody 10
In the case of B4, in assay [1], the “Bmax (MFI)” value is 17200 MFI and binding was characterised by a dissociation constant (Kd) of 0.41 nM. Further, in assay [2], the “Bmax (MFI)” value came to 2720 MFI and the Kd was 6.4 nM. Besides, in assay [3], the “Bmax (MFI)” value was 26300 MFI and the Kd was 0.82 nM. In addition, in assay [4], the “Igrov … EC50” value worked out at 0.028 nM; the “Igrov … Span” value worked out at 66%; the “KB … EC50” value was determined as 0.05 nM; the “KB … Span” value was 94%.

B5: SRP1848-B01 (antibody, V domains shown)
VH: EVQLVESGGGLVQPGGSLRLSCAASGFNIRNYSIHWVRQAPGKGLEWVGEIYPVDGITDYADSVKGRFTISADTSKNTAYLQMNSLRAEDTAVYYCARGFWSWPSGYSYFLDYWGQGTLVTVSS
VL: not shown
notes: HC variant paired with trastuzumab LC, cell-free expressed, HIS- and FLAG-tagged; also called Antibody 9
Turning to B5, in assay [1], the “Bmax (MFI)” value turned out to be 23900 MFI and the affinity, expressed as Kd, was 0.83 nM. In assay [2], the “Bmax (MFI)” value worked out at 3400 MFI and the Kd was found to be 16.4 nM. Further, in assay [3], the “Bmax (MFI)” value amounted to 26600 MFI and the Kd was found to be 1.06 nM. For the same molecule, in assay [4], the “Igrov … EC50” value came to 0.031 nM; the “Igrov … Span” value was 82%; the “KB … EC50” value stood at 0.064 nM; the “KB … Span” value worked out at 95%.

B6: SRP1848-B07 (antibody, V domains shown)
VH: EVQLVESGGGLVQPGGSLRLSCAASGFNISRFYIHWVRQAPGKGLEWVGGISPYDGFTDYADSVKGRFTISADTSKNTAYLQMNSLRAEDTAVYYCARGSWSWPAGYGYYQDYWGQGTLVTVSS
VL: not shown
notes: HC variant paired with trastuzumab LC, cell-free expressed, HIS- and FLAG-tagged; also called Antibody 14
As for B6, in assay [1], the “Bmax (MFI)” value was determined as 25500 MFI and binding was put at a Kd of 1.05 nM. Further, the binding result in assay [2] is listed as “no binding”. Also, in assay [3], the “Bmax (MFI)” value turned out to be 25600 MFI and binding was put at a Kd of 0.66 nM. Further, in assay [4], the “Igrov … EC50” value turned out to be 0.038 nM; the “Igrov … Span” value was 73%; the “KB … EC50” value is 0.079 nM; the “KB … Span” value worked out at 96%.

B7: SRP1848-C01 (antibody, V domains shown)
VH: EVQLVESGGGLVQPGGSLRLSCAASGFNIGNSYIHWVRQAPGKGLEWVGGVTPNDGYTDYADSVKGRFTISADTSKNTTYLQMNSLRAEDTAVYYCARGSWFWRAGYGYYLDYWGQGALVTVSS
VL: not shown
notes: HC variant paired with trastuzumab LC, cell-free expressed, HIS- and FLAG-tagged; also called Antibody 18
With B7, in assay [1], the “Bmax (MFI)” value is 25900 MFI and the dissociation constant (Kd) stood at 0.6 nM. In addition, in assay [2], the “Bmax (MFI)” value came out at 1370 MFI and binding was put at a Kd of 26 nM. For the same molecule, in assay [3], the “Bmax (MFI)” value was 28500 MFI and the Kd was 0.66 nM. In addition, in assay [4], the “Igrov … EC50” value came to 0.023 nM; the “Igrov … Span” value amounted to 68%; the “KB … Span” value turned out to be 90%.

B8: SRP1848-A10 (antibody, V domains shown)
VH: EVQLVESGGGLVQPGGSLRLSCAASGFNIRKYSIHWARQAPGKGLEWVGDIFPIDDITDYADSVKGRFTISADTSKNTAYLQMNSLRAEDTAVYYCARGSWSWPSGHSYYLDYWGQGTLVTVSS
VL: not shown
notes: HC variant paired with trastuzumab LC, cell-free expressed, HIS- and FLAG-tagged; also called Antibody 8
With B8, in assay [1], the “Bmax (MFI)” value is 14800 MFI and the dissociation constant Kd was 0.47 nM. In addition, in assay [2], the “Bmax (MFI)” value is 10200 MFI and the Kd is 1.2 nM. Moreover, in assay [3], the “Bmax (MFI)” value was found to be 27100 MFI and the Kd was 0.66 nM. Besides, in assay [4], the “Igrov … EC50” value amounted to 0.027 nM; the “Igrov … Span” value was determined as 75%; the “KB … EC50” value is 0.033 nM; the “KB … Span” value was determined as 96%.

B9: SRP1848-C03 (antibody, V domains shown)
VH: EVQLVESGGGLVQPGGSLRLSCAASGFNIGVYSIHWVRQAPGKGLEWVGEIYPIDGNTDYADSVKGRFTISADTSKNTAYLQMNSLRAEDTAVYYCARGSWAWRSGYSYYLDYWGQGTLVTVSS
VL: not shown
notes: HC variant paired with trastuzumab LC, cell-free expressed, HIS- and FLAG-tagged; also called Antibody 19
In the case of B9, in assay [1], the “Bmax (MFI)” value came to 25100 MFI and the dissociation constant Kd stood at 0.5 nM. In assay [2], the “Bmax (MFI)” value turned out to be 3310 MFI and the affinity, expressed as Kd, was 3 nM. In assay [3], the “Bmax (MFI)” value was 29100 MFI and the Kd is 0.51 nM. In addition, in assay [4], the “Igrov … EC50” value was 0.035 nM; the “Igrov … Span” value was found to be 72%; the “KB … EC50” value was determined as 0.074 nM; the “KB … Span” value worked out at 93%.

B10: SRP1848-B09 (antibody, V domains shown)
VH: EVQLVESGGGLVQPGGSLRLSCAAGGFNITNYYIHWVRQAPGKGLEWVGGITPVDGYTDYADRVKGRFTISADTSKNTAYLQMNSLRAEDTAVYYCARGAWSWRSGYGYYMDYWGQGTLVTVSS
VL: not shown
notes: HC variant paired with trastuzumab LC, cell-free expressed, HIS- and FLAG-tagged; also called Antibody 15
On to B10, for which, in assay [1], the “Bmax (MFI)” value worked out at 25200 MFI and the equilibrium dissociation constant (Kd) was 0.99 nM. For the same molecule, in assay [2], the “Bmax (MFI)” value was 1420 MFI and the Kd amounted to 78 nM. In assay [3], the “Bmax (MFI)” value stood at 25200 MFI and the Kd turned out to be 0.46 nM. In addition, in assay [4], the “Igrov … EC50” value amounted to 0.027 nM; the “Igrov … Span” value was determined as 74%; the “KB … EC50” value was 0.073 nM; the “KB … Span” value came to 97%.

B11: SRP1848-B05 (antibody, V domains shown)
VH: EVQLVESGGGLVQPGGSLRLSCAASGFNISNYYIHWVRQAPGKGLEWVGGISPIDGYTDYADSMKGRFTISADTSKNTAYLQMSSLRAEDTAVYYCARGSWFWQSGYGYYLDYWGQGTLVTVSS
VL: not shown
notes: HC variant paired with trastuzumab LC, cell-free expressed, HIS- and FLAG-tagged; also called Antibody 12
Consider B11, for which, in assay [1], the “Bmax (MFI)” value is 21900 MFI and binding was characterised by a dissociation constant (Kd) of 0.64 nM. The binding result in assay [2] was “no binding”. In assay [3], the “Bmax (MFI)” value came out at 24500 MFI and the Kd is 0.65 nM. Further, in assay [4], the “Igrov … EC50” value was determined as 0.04 nM; the “Igrov … Span” value came to 72%; the “KB … EC50” value came out at 0.065 nM; the “KB … Span” value is 94%.

B12: SRP1848-B04 (antibody, V domains shown)
VH: EVQLVESGGGLVQPGGSLRLSCAASSFNISNHSIHWVRQAPGKGLEWVGEIYPVDGITDYADSVKGRFTISADTSKNTAYLQMNSLRAEDTAVYYCARGRYSWRAGYSYYLDYWGQGTLVTVSS
VL: not shown
notes: HC variant paired with trastuzumab LC, cell-free expressed, HIS- and FLAG-tagged; also called Antibody 11
Regarding B12, in assay [1], the “Bmax (MFI)” value came to 27800 MFI and binding was characterised by a dissociation constant (Kd) of 0.65 nM. In addition, in assay [2], the “Bmax (MFI)” value amounted to 2190 MFI and binding was characterised by a dissociation constant (Kd) of 17.9 nM. Also, in assay [3], the “Bmax (MFI)” value is 27800 MFI and binding was put at a Kd of 0.72 nM. In assay [4], the “Igrov … EC50” value amounted to 0.018 nM; the “Igrov … Span” value was determined as 70%; the “KB … EC50” value worked out at 0.035 nM; the “KB … Span” value is 94%.

B13: SRP1848-B11 (antibody, V domains shown)
VH: EVQLVESGGGLVQPGGSLRLSCAASGFNIGNNSIHWVRQAPGKGLEWVGDISPIDGFTDYADSVKGRFTISADTSKNTAYLQMNSLRAEDTAVYYCARGSWSWRAGYGYYLDYWGQGTLVTVSS
VL: not shown
notes: HC variant paired with trastuzumab LC, cell-free expressed, HIS- and FLAG-tagged; also called Antibody 17
In the case of B13, in assay [1], the “Bmax (MFI)” value turned out to be 22900 MFI and the affinity, expressed as Kd, was 0.34 nM. Moreover, in assay [2], the “Bmax (MFI)” value amounted to 1630 MFI and the Kd is 3.9 nM. Further, in assay [3], the “Bmax (MFI)” value is 28400 MFI and the Kd amounted to 0.56 nM. Besides, in assay [4], the “Igrov … EC50” value turned out to be 0.026 nM; the “Igrov … Span” value came to 74%; the “KB … EC50” value came out at 0.058 nM; the “KB … Span” value worked out at 93%.
